Measurements taken from JP2017086068A (dated 2017).

Target: HA2融合ペプチドFGAIAG (Influenza A virus (A/VN/1194/04))
Assay: Pepscan peptide mapping, linear and cyclised peptides of HA A/VN/1194/04

B1: FI6変異体2 (antibody, V domains shown)
VH: QVQLVQSGGGVVQPGRSLRLSCVASGFTFSTYAMHWVRQAPGRGLEWVAVISYDGNYKYYADSVKGRFSISRDNSNNTLHLEMNTLRTEDTALYYCAKDSQLRSLLYFEWLSQGYFDPWGQGTLVTVTS
VL: DIQMTQSPDSLAVSLGARATINCKSSQSVTFNYKNYLAWYQQKPGQPPKVLIYWASARESGVPDRFSGSGSGTDFTLTISSLQAEDVAVYYCQQHYRTPPTFGQGTKVEIK
binding result: binds
